In paper PMC5982114 (Arteriosclerosis, thrombosis, and vascular biology, 2018):
Blank lines part the entries; values can stand above or below the molecule they belong to.

Legend:
[1] = molecular target: Protein S (human) (UniProt P07225); assay: fluorescence polarisation
[2] = molecular target: Alexa-Fluor-488-labeled PS (human) (UniProt P07225); assay: flow cytometry on cells
[3] = molecular target: FIXa K126A (human) (UniProt P00740)
[4] = molecular target: FIXa K132A (human) (UniProt P00740)
[5] = molecular target: FIXa K132A/R170A (human) (UniProt P00740)
[6] = molecular target: FIXa N129A (human) (UniProt P00740)
[7] = molecular target: FIXa Padua mutant (R170L) (human) (UniProt P00740)
[8] = molecular target: FIXa R150A (human) (UniProt P00740)
[9] = molecular target: FIXa R165A (human) (UniProt P00740)
[10] = molecular target: des-Gla FIXa (human)
[11] = molecular target: Factor IXa wild type (human, UniProt P00740 47-191; P00740 227-461); assay: cell-based or functional assay
[12] = molecular target: DEGR-FIXa K126A (human) (UniProt P00740); assay: other fluorescence titration
[13] = molecular target: DEGR-FIXa K132A (human) (UniProt P00740); assay: other fluorescence titration
[14] = molecular target: DEGR-FIXa N129A (human) (UniProt P00740); assay: other fluorescence titration
[15] = molecular target: DEGR-FIXa Padua mutant (R170L) (human) (UniProt P00740); assay: other fluorescence titration
[16] = molecular target: DEGR-FIXa R150A (human) (UniProt P00740); assay: other fluorescence titration
[17] = molecular target: DEGR-FIXa R165A (human) (UniProt P00740); assay: other fluorescence titration
[18] = molecular target: DEGR-labelled des-Gla FIXa (human); assay: other fluorescence titration

Molecule: zymogen form of FIX (natural protein)
IC50 [1]: 200 nM

Molecule: fluorescently labeled des-Gla FIXa (domain or fragment)
median fluorescence intensity [2]: 4000

Molecule: FIXa K126A (from UniProt P00740 47-191) (enzyme)
IC50 [1]: 140 nM

Molecule: FIXa K132A (from UniProt P00740 47-191) (enzyme)
IC50 [1]: 213 nM

Molecule: des-Gla FIXa (domain or fragment)
IC50 [1]: 135 nM

Molecule: FIXa Padua mutant (R170L) (from UniProt P00740 47-191) (enzyme)
IC50 [1]: 163 nM

B1: Protein S (natural protein, human, UniProt P07225 42-676, looked up)
chain: ANSLLEETKQGNLERECIEELCNKEEAREVFENDPETDYFYPKYLVCLRSFQTGLFTAARQSTNAYPDLRSCVNAIPDQCSPLPCNEDGYMSCKDGKASFTCTCKPGWQGEKCEFDINECKDPSNINGGCSQICDNTPGSYHCSCKNGFVMLSNKKDCKDVDECSLKPSICGTAVCKNIPGDFECECPEGYRYNLKSKSCEDIDECSENMCAQLCVNYPGGYTCYCDGKKGFKLAQDQKSCEVVSVCLPLNLDTKYELLYLAEQFAGVVLYLKFRLPEISRFSAEFDFRTYDSEGVILYAESIDHSAWLLIALRGGKIEVQLKNEHTSKITTGGDVINNGLWNMVSVEELEHSISIKIAKEAVMDINKPGPLFKPENGLLETKVYFAGFPRKVESELIKPINPRLDGCIRSWNLMKQGASGIKEIIQEKQNKHCLVTVEKGSYYPGSGIAQFHIDYNNVSSAEGWHVNVTLNIRPSTGTGVMLALVSGNNTVPFAVSLVDSTSEKSQDILLSVENTVIYRIQALSLCSDQQSHLEFRVNRNNLELSTPLKIETISHEDLQRQLAVLDKAMKAKVATYLGGLPDVPFSATPVNAFYNGCMEVNINGVQLDLDEAISKHNDIRAHSCPSVWKKTKNS
Ki of inhibition by PS of FX activation by FIXa-phospholipid (S-2765) [3]: 100 nM
Ki of inhibition by PS of FX activation by FIXa-phospholipid (S-2765) [4]: 132 nM
Ki of inhibition by PS of FX activation by FIXa-phospholipid (S-2765) [5]: 271 nM
Ki of inhibition by PS of FX activation by FIXa-phospholipid (S-2765) [6]: 72 nM
Ki of inhibition by PS of FX activation by FIXa-phospholipid (S-2765) [7]: 175 nM
Ki of inhibition by PS of FX activation by FIXa-phospholipid (S-2765) [8]: 48 nM
Ki of inhibition by PS of FX activation by FIXa-phospholipid (S-2765) [9]: 33 nM
Ki of inhibition by PS of FX activation in the Xase complex (FIXa-FVIIIa) [10]: 120 nM
Ki of inhibition by PS of FX activation by FIXa-phospholipid (S-2765) [11]: 35 nM
Kd [12]: 118 nM
Kd [13]: 148 nM
Kd [14]: 77 nM
Kd [15]: 157 nM
Kd [16]: 48 nM
Kd [17]: 54 nM
Kd [18]: 124 nM

More lines, in order of falling IC50 [1], values ahead:

IC50 [1]: 92 nM
Molecule: FIXa N129A (from UniProt P00740 47-191) (enzyme)

IC50 [1]: 68 nM
Molecule: FIXa R165A (from UniProt P00740 47-191) (enzyme)

IC50 [1]: 43 nM
Molecule: FIXa R150A (from UniProt P00740 47-191) (enzyme)
